Data taken from PMC11809415 (The Journal of Cell Biology, 2025).

Molecular target: F-actin (rabbit skeletal muscle α-actin filaments) (rabbit, UniProt P68135 1-377)
Test: co-sedimentation; 2 µM F-tractinopt-mCherry fusions incubated with F-actin at increasing concentrations for 5 min at room temperature, 120,000 g for 20 min at 4°C; supernatant and pellet on SDS-PAGE, densitometry; Kd by GraphPad Prism
Conditions: both partners purified

B1: F-tractinopt–mCherry fusion (domain or fragment)
chain: APRRSVGELRLLFEARAASAA
notes: rat inositol 1,4,5-trisphosphate 3-kinase A; numbers count on: the 43-residue F-tractin peptide (peptide residue n = kinase residue n+9); source: E. coli BL21-CodonPlus(DE3)-RIPL, purified (Protino Ni-IDA resin)
Kd: 8.5 ± 1.2 µM
